In EP4814018A2 (F. Hoffmann-La Roche AG, dated 2026):
Where a chain is given by its changes, count along the chain named.

B1: clone-299 (antibody, V domains shown)
VH: QSMEESGGRLVTPGTPLTLTCTVSGFSLSSYAMSWVRQAPGKGLEWIGYIWSGGSTDYASWAKGRFTISKTSTTVDLKITSPTTEDTATYFCARRYGTSYPDYGDANGFDPWGPGTLVTVSS
VL: AYDMTQTPASVEVAVGGTVTIKCQASQSISSYLSWYQQKPGQRPKLLIYRASTLASGVSSRFKGSGSGTQFTLTISGVECADAATYYCQQCYSSSNVDNTFGGGTEVVVK
notes: Rabbit variable domains
B2: murine anti-transferrin receptor antibody 128.1 (antibody, V domains shown)
VH: QVQLVQSGAEVKKPGASVKVSCKASGYTFTGYTMNWVRQAPGQGLEWMGRINPHNGGTDYAQKFQGRVTMTRDTSISTAYMELSRLRSDDTAVYYCARGYYYYSLDYWGQGTLVTVSS
VL: DIQMTQSPSSLSASVGDRVTITCRASSSIRYIHWYQQKPGKAPKRLIYDTSNLASGVPSRFSGSGSGTEFTLTISSLQPEDFATYYCHQRNSYPWTFGQGTRLEIK
B3: clone 494 VH 1 / VL 0 (mu) (antibody, V domains shown)
VH: QVQLVQSGAEVKKPGASVKVSCKASGFNIKDTYIHWVIQAPGQGLEWMGRIDPANGDTKSDPKFQVRVTITADTSTSTVYMELSSLRSEDTAVYYCVRDYLYPYYFDFWGQGTTVTVSS
VL: KIVMTQSPKSMSMSVGERVTLNCRASESVDTYVSWYQQKPEQSPELLIYGASNRYTGVPDRFTGSGSATDFTLTISSVQAEDLADYYCGQTYNYPLTFGAGTKLELKR
B4: clone 494 VH 1 / VL 3 (antibody, V domains shown)
VH: B3 VH
VL: EIVLTQSPGTLSLSPGERATLSCRASESVDTYVSWYQQKPGQAPRLLIYGASNRYTGVPDRFSGSGSGTDFTLTISRLEPEDFADYYCGQTYNYPLTFGQGTKLEI
B5: clone 494 VH 3 / VL 4 (antibody, V domains shown)
VH: B3 VH with V66G
VL: B4 VL with E1K, V58I
B6: clone 494 VH 4 / VL 1 (antibody, V domains shown)
VH: B3 VH with A16S, V66G, T74E, V79A
VL: KIQMTQSPSSLSASVGDRVTITCRASESVDTYVSWYQQKPGKAPKLLIYGASNRYTGVPSRFSGSGSGTDFTLTISSLQPEDFADYYCGQTYNYPLTFGQGTKLEI
B7: clone 494 VH 4 / VL 3 (antibody, V domains shown)
VH: B3 VH with A16S, V66G, T74E, V79A
VL: B4 VL
B8: clone 494 VH 4 / VL 0 (mu) (antibody, V domains shown)
VH: B3 VH with A16S, V66G, T74E, V79A
VL: B3 VL
B9: clone 494 VH 1 / VL 4 (antibody, V domains shown)
VH: B3 VH
VL: B4 VL with E1K, V58I
B10: clone 494 VH 2 / VL 3 (antibody, V domains shown)
VH: B3 VH with D61A
VL: B4 VL
B11: clone 494 VH 2 / VL 0 (mu) (antibody, V domains shown)
VH: B3 VH with D61A
VL: B3 VL
B12: clone 494 VH 1 / VL 2 (antibody, V domains shown)
VH: B3 VH
VL: B4 VL with E1K
B13: clone 494 VH 2 / VL 1 (antibody, V domains shown)
VH: B3 VH with D61A
VL: B6 VL
B14: clone 494 VH 3 / VL 2 (antibody, V domains shown)
VH: B3 VH with V66G
VL: B4 VL with E1K
B15: clone 494 VH 3 / VL 1 (antibody, V domains shown)
VH: B3 VH with V66G
VL: B6 VL
B16: clone 494 VH 3 / VL 0 (mu) (antibody, V domains shown)
VH: B3 VH with V66G
VL: B3 VL
B17: clone 494 VH 2 / VL 4 (antibody, V domains shown)
VH: B3 VH with D61A
VL: B4 VL with E1K, V58I
B18: clone 494 VH 4 / VL 2 (antibody, V domains shown)
VH: B3 VH with A16S, V66G, T74E, V79A
VL: B4 VL with E1K
B19: clone 494 VH 0 (mu) / VL 1 (antibody, V domains shown)
VH: EVQLQQSGAVLVKPGASVKLSCPASGFNIKDTYIHWVIQRPEQGLEWIGRIDPANGDTKCDPKFQVKATITADTSSNTAYLQLSSLTSEDTAVYFCVRDYLYPYYFDFWGQGTTLTVSS
VL: B6 VL
B20: clone 494 VH 0 (mu) / VL 4 (antibody, V domains shown)
VH: B19 VH
VL: B4 VL with E1K, V58I
B21: clone 494 VH 0 (mu) / VL 3 (antibody, V domains shown)
VH: B19 VH
VL: B4 VL
B22: clone 494 VH 0 (mu) / VL 2 (antibody, V domains shown)
VH: B19 VH
VL: B4 VL with E1K

What follows are binders tested against T1, human transferrin receptor (human, UniProt P02786 89-760) (assay: BIAcore).
T1 construct: also called huTfR; hTfR
T1 sequence (P02786 89-760 limits assumed): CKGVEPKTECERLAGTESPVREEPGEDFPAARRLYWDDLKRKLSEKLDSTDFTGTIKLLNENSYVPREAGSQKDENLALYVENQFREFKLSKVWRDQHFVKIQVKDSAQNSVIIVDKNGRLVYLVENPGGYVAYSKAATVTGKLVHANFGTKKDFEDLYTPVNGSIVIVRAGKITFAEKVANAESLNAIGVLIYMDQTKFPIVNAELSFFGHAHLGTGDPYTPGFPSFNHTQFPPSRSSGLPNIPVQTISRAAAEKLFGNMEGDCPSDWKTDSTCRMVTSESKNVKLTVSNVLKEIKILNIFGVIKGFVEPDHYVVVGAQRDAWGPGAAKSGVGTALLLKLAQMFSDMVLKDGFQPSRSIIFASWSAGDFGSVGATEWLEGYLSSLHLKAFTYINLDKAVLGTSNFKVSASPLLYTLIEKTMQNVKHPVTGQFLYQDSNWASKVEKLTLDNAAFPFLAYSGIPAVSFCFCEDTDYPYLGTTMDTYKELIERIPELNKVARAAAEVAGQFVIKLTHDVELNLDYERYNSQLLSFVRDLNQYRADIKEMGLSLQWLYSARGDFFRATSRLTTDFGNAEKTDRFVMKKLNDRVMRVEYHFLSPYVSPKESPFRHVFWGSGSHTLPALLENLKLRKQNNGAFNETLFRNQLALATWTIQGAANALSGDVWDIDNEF
For B1, the “BIAcore t1/2” value was 19 min.
With B2 the “BIAcore t1/2” value was 19 min.

These binders were tested against T2, cynomolgus transferrin receptor (cynomolgus, UniProt H9EXL1 89-760 (rhesus entry)) (assay: BIAcore).
T2 construct: also called cyTfR; Cyno TfR
T2 sequence (chain, as listed by the source): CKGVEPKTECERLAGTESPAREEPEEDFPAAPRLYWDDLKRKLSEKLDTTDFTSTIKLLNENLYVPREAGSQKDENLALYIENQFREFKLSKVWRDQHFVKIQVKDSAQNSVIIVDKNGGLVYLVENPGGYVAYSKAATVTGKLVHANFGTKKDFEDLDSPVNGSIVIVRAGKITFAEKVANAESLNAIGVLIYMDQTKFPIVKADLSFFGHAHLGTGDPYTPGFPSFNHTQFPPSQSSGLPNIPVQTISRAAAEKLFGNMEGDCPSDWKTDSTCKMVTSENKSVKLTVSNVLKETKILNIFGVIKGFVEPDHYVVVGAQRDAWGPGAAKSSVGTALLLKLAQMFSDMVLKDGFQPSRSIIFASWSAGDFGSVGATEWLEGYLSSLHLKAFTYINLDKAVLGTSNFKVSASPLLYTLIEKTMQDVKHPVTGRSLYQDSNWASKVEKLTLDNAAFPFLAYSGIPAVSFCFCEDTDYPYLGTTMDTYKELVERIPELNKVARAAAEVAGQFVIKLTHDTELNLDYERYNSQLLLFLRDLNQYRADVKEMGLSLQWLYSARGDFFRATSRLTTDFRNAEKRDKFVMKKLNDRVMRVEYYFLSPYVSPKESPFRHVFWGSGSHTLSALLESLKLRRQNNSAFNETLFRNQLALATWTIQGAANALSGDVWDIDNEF
For B1, the “BIAcore t1/2” value was 42 min.
For B2, the “BIAcore t1/2” value was 0.2 min.

Each binder was assayed against T2, cynomolgus transferrin receptor (assay: BIAcore B4000, biotinylated TfR captured (Example 14), 25 °C).
For B2, the koff was 0.0778 s⁻¹.

The binders below were run against T3, cynomolgus transferrin receptor on stably transfected CHO cells (cynomolgus) (assay: FACS, cyno against human TfR CHO cells).
T3 construct: whole, on cells; also called Cyno TfR-CHO; cyTfR (FACS)
In the case of B1, the “ratio EC50 Cyno/ human” value is reported as 0.9 and the “ratio max Cyno/ human” value is reported as 1.
For B2, the “ratio EC50 Cyno/ human” value was 3.3 and the “ratio max Cyno/ human” value was 0.6.

These binders were tested against T2, cynomolgus transferrin receptor (assay: BIAcore T200, biotinylated TfR captured (Example 13), 25 °C).
Binder B2 has a Kd of 136 nM, a koff of 0.0733 s⁻¹ and a kon of 541000 M⁻¹ s⁻¹.

These binders were tested against T1, human transferrin receptor (assay: SPR off-rate).
B3 showed a koff of 0.000137 s⁻¹.
Binder B4 has a koff of 0.000386 s⁻¹.
B5 showed a koff of 0.000683 s⁻¹.
Binder B6 has a koff of 0.000448 s⁻¹.
B7 was tested, and the koff was 0.000452 s⁻¹.
For B8, the koff was 0.000177 s⁻¹.
Binder B9 has a koff of 0.000657 s⁻¹.
B10 was tested, and the koff was 0.00043 s⁻¹.
In the case of B11, the koff is reported as 0.000156 s⁻¹.
Work on B12 yielded a koff of 0.000399 s⁻¹.
B13 gave a koff of 0.000454 s⁻¹.
In the case of B14, the koff is reported as 0.000415 s⁻¹.
In the case of B15, the koff is reported as 0.000476 s⁻¹.
B16 was tested, and the koff was 0.000148 s⁻¹.
For B17, the koff was 0.000703 s⁻¹.
In the case of B18, the koff is reported as 0.000438 s⁻¹.
B19 was tested, and the koff was 0.00037 s⁻¹.
B20 showed a koff of 0.000542 s⁻¹.
B21 was tested, and the koff was 0.000339 s⁻¹.
In the case of B22, the koff is reported as 0.000364 s⁻¹.

Each binder was assayed against T3, cynomolgus transferrin receptor on … (assay: FACS on cyTfR CHO cells).
In the case of B2, the EC50 is reported as 0.314 µg/mL.
